Assay results reported in the domain aggregation screens of Martell et al. (2025).

Experiment: soluble fraction after stress (log2 fold change); higher = more stays soluble; pooled small domains, quantitative proteomics
Details: stress: pH 4
Method in brief: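 Small protein domains from pooled custom libraries were exposed to pH 4, then quantified with high-throughput quantitative proteomics. The fold change in how much of each domain remains soluble is read as aggregation propensity. It is given as log2, with higher values meaning more stayed soluble.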

Sequence	soluble fraction (log2)
HMSDIHARIAAALAALTSPEKIHDLVVDDDGKVSFTFHLTREDPATLVRDARKAVQAVDGVRDVKVNVVDP	0.00539
HMVPLSMLTEGQIFRGQVLDITSQGIKIQLNPEQILFARLGEQVELNIGQQMAFQVRENKGDQLIIHPMQN	-1.18
HMHSILDDIPTVGPARRKALMRRYESLEAIRQATVDELKELPEINEASAEAIVSFFAGQAKEG	-1.13
HMQAKDVEVPDYVGKSFVSIKENNPNDFKFEVKSEYDESKEMGVILDQEPKGGSMKVKSGSTITVTV	0.0655
HMNTTLQLDTILRLEKNAHLLENFVRAGFTDSELGKLTDADLLQIGVPKIGDRRRLLAALAERAH	-0.29
HMTQEQKQQISDQLRAYVEQKGSGNKAAASMNGVSSATISKVLAGKWETISEDMWRSIAAQTGH	-0.156
HMNNSVAYSTFLNDIRTNTLKDVDMTSNSETINVTKKDGTKYQTVMPMYDRDLLADLSKTDATVTGQP	-0.155
HMTMVLPDAARDKLKAIGLSIEHVEPSPVKDIFTVISREGVSYVSKDGDYIFTGSLFHVKGKDVVNTTEQA	-0.275
HMAMESDELETLVDQLIVDHPDEWSRFVGGDDGDRKKMQGFFTGQIMKATKGQADGRAVAQLLGQKSA	-0.337
HMVPAMGSLTLIKGGVNLRNAPGGLTIAQLDRGLVLSYTKFVQKDGYTWYLVNSPKGTGYVRSDVVQLGS	-0.3
HMADEDTILALAKEILASWPDKVEAYKNGNKGMLGLFMGELMKKSGGKANPKSASALIQKLLE	-0.231
HMVVMKGKVKWFNKNKGYGFIITDDNKEYFVHWKSIVTNSPRELKVLEQDELVTFDLMETDKGIQAINII	-1.22
HMDSDRAARLSSLTPQQFRVLRMVSEGQLNKQIAYQLNISEATVKSHVSAILQKLGVNSRTQAVILATRLD	0.147
HMHAQDTLMTRAGETRTVKILEIGLEEIKYRIWGLDDSPVIVIDKIDVKQIVFSNGEKMTIVQ	-1.86
HMDRAIAAHLEARVRDALKQLSPEQTRVIELFFFDNKTHAEIENDLKIPLGTVKSRLRLALNKLRASL	-0.234
HMTPVIINESGGDQDTRIEGLNDNNLLYVDASTDRVGVGVATPTQKLDVNGDVAISGGSLYLSQ	-0.0183
HMEETIVFGQQKAINALSSDAGLSSNELDSYLKKRYKRPLYQLSKSEGAELIQGFQDGSLSKASIMDYVS	0.346
HMEISTENESFSNGLLEHPHYTRPPVWEDLKIPAVLMSGHHGKVAEWRKQQSEALTQERRPDLWEAFG	-0.0776
HMHAPKIIVLTINPDKIRDVIGPGGKMIKSIVAATGVKMDVEDDGKIHISSSDQKAADEAIRMINEITAEA	0.223
HMSNETLFEFFEKNISQLTPTLVDNINRSLAVHSKKNVKLAIMIAAKSNVRNWNYISAILNRWEKE	-1.21
HMHIELNDTQKRILNFLSDDPNLSAVRLAEQLGISSRNVEKNIKKLKEYGILIRHGSPKNGYWEIVV	-0.2
HMQQELEEMESGNLVRTAIDSLPINQRTAFILSAYEELPIKEIASIMNRSEGAVEQLLQRAKMNLKKKIK	-0.0659
HMARDDVIRLVQLSLDHLPAKYADALEWKYVEGLSTKEIAARLELGSEAAESLLARARRAFKNDFQEIFES	-0.47
HMDLEGLSNKELVTLRGQIQDDLNKWATEVGIIDPKNRPDDYNRALQSLEDAKRQRSAIDAKL	-0.38
HMDYQEVEFEKLGKEILTKILLDINKKATKKTLKILIDGFNYDSYRSFYIAIGKAQISSDSILELLQH	-0.524

Sequence	soluble fraction (log2)
HMTLPELTDRELQILQLLSVGNSSQKIAKQLNISTHTVSTHRKQLLRKLGAQNGADLIRRAQKLGIL	0.0897
HMSFGYFQLRAKDPQKLKSVLEKIPQIQSIKEEKGDLIGYLNADMEAEELSQKLAAAKIFVTHMAKKK	0.216
HMDLLIFSPSLGQHVRDLKRVIDRLHQHGIPVRWQKAKLLREEIEYIGWTWKSGGLIDPTNV	0.337
HMADLTEEQKTLFRLIRDLQPVSSKTLLENSGFTRSTQTRLLNGLIEKQIVIRTGNGPATRYSLR	-0.307
HMEDVSTLAVKQRIDDLVKQENPAKPLSDSDIVARLKTDGIYIARRTVAKYRMELNIPSSSARKRAQQFS	0.266
HMLPDLQESIDELLNIVDQRLNTSFEELVSGVNTTEKAIAFFLALLETIKWGFIKAEQTNNENKINIEKNY	-1.4
HMSTEEYDRGYEQGLEEAAKADDAWVANLIKIYSQNTPESMPETMKGRLDAFLYEQQRRAQSVPEM	-1.09
HMPLKLIDVYLGRHGKKRYDVFKETGLSQQTLASANGKPAAALTGRILQAIGRTVGETPGRVLDEMLMIEQ	0.0887
HMDTPVYYYVNGNGVRMRKDASLESDILILLYKGTKVEYVDVKGEWIKVKYNNEIGYIRNDLLSAEMPD	-0.527
HMPKITTIHIDPEKISKVIGPGGKTVKKIIEETGAKIDIEDTGKIFIAAVNTEAANKAIDMINGIVA	-0.0168
HMQNESGLFTMSDLWEAGLMGSENASRKRAAVGAFLGIGFGNGKQFLKRLNHFGVTKEEWESALEQLGE	-0.447
HMIMLDRILKIMDYNKFTPSEFADVLEIDRSRLSHILNGRNKPSLEIVMKILEKFPEISSDWLLFGSGNML	-2.01
HMDTIAEFIAELTPLEQKVFHVYYEKGQSLKDTAQQAEITSTSARGALDRIRAKGRHFHLAVILFIG	-1.22
HMATKVNSGVTVRDLAELLGLSSADLIKKLMTMGEMATLTQTLTDDSVKAIADEYDRKIEIVSAAQ	-0.771
HMFDEVKDAARRLAALLDQAGGTLTLNDKSAPEEVAALTGMSKKVFKRALGHLMSRSEVVVADGRITKKD	-0.196
HMIERKLRKKEHFIASVGEKVKIKNFATETYKGELISADNEKVVVETEFGKEEITYDNILAAATYFE	-1.01
HMRVDYKTQLQELLQRQGAAAPQYRLLVEEGPAHLRRFQVGVYFQGRLLGTGWGRNKKEAEQEAARQALMP	0.186
HMLFQQPATMIGKIGVAMSDLRPSGKIKIDDEWYDGQSEGDYILKGQEIIVVQVMNAYLIVRL	-0.44
HMGIIYGKNPVLEAISSGTTINKIYAQTSNKEIDSVIKEALKRKIIVVNTDKQKLDKMIDGKNSQGIIASI	0.36
HMSFESMGLTPRQADVLTLLLQGKSNKDIARRLVLSVETVKDHVQAVLRALGVSSRTQAVLAVGQMTQQ	-0.37
HMKKDRKKMLKEGIVLFEKILRGMELSPTSEPLKKVLTSFNIQNKEDLYVKLGAGVISSEEVIKELKKK	≥ 0.43
HMASRKTERINRLIDVLQHATSRVPASVLSKILGIGERSVRNYVSEVNEQGQFRIDSSSGGYRLVA	-0.0154
HMQKTPFEIMTIYKDQILEMLGKDLTATEISIVLKKKGEKVHPREIRKFQLQHYEEVQDMRKKWRE	-0.632
HMSGAWEVGLLRQFTDWMGTQYNAYAGRNFDAITVAQVAEKNPELLTPFVESFFKERVEPALAAG	-0.589
HMDAVLMEYDRLLALELTEDPDVYQDLLDKVREQSLGADGRVTDKYREKFDAVATRFDDYEDNYQW	-0.62

Sequence	soluble fraction (log2)
HMYEDNERSLVPIVQNFLKEKKILLSNQSINLIVQRSGGDRINLYNELQKIESFSKNQKKIDIGDIIKLTN	0.169
HMSRLLERARDLMAKPGAWLSAEGGAYALRLSPDRRSRISLTLTETEFRALIDQPGLRVRPGGGWSGRA	-0.484
HMRRGPLTPDDFVLDMRVVHPRYGVGRIVALSGSGESRKATVDFGGSIGRMKFVLSQSPLKP	≥ 0.43
HMIQRLNVNTEVLSTYIRNSNTPIEYLRQKLPNIDKFLKGELEPTFNQVYALSKLINIPTGLLLLKEPIS	0.359
HMANLNFDMSQIVASRYQEKAAELGVTAPSLARTDYNTQEQATYEFVAREIIADYYDDRVAPFNDLIPE	-0.967
HMRLARPLTPTEERVLRLLASDMSNAKIGEVLGIRLPTVKSHVSHIMQKLGVTSRAKARTAAQQLGI	≥ 0.43
HMPMINLYQRLNLPPTASRAEIEAALAQYRSELSTAEIRGVQEWLLVNEVRHRYDAKLRQEQPSFFI	-0.427
HMLLSFYGTYGNVKLTGKELEDLQKEFPFDYQARIDRLSAYMESSGRKYHSHFATIRSWAQDDAKKN	0.173
HMGLLGTDISAETMIGYFKKIDLGFDEETQEVIVPSWRQDLLRDADIAEEVARFYGYDNIPTTLPSGEST	-0.736
HMDASVTIEQVERMVQANVSDDVIISQLQGRGAAQNLSTDDIINLTQKGISAEVIKAYQSAG	-0.934
HMHSDSEIEKGYTDDGQKLSNVNGVYMTKSEMYNKGIVEKDPNTGEEVMGRNRVNPVTGELE	0.204
HMWSQEPEYRPLYNSMDGFDAGQVVEMLQQSRIDYKVEPNSGALLVRSEDLADARLRLASAGISP	-0.959
HMSSAMDMISRDVRNADSISISTTTYSKKIDLYNFDRNGDIEELHSYSAKNDLGILYNDEPI	0.191
HMVKLSDGIVEHIKSLIMAGRLKPGDKLPPEREFAATLGVSRTALREAVRTLSLMGLLDARQGEGTFVSG	0.313
HMQTKEVDYGTFMSMIDEKNIGTVEIGDSQIVFTDKDNKNLYETGVMNDPDLAQRLHDAGATFSS	0.0149
HMSLQEISDLISQAERADQEQLKEVLKQLHQVESGNQPMSKGFLSSALSTLNKYPALITSIGQLLFKLAT	-0.723
HMSHYEYKVGDRVNLLDYDDFGILYKEKDNFYNVVVYYNGEFVEVNVKRITLEVAAKELYPEGYDLSTLFV	-2.41
HMLSSEQQQKLDSLSRKELEVAELVSHGATNKMIARTMNITERTVKAHLTAIFQKMNIPDRLSLAIFFRDL	0.0769
HMERLSVSMGDMVVFVRDAVEAFRGLVKEKGITLTFESKVEHFYMNYDHDKVYKVVNNLLSNAVKFT	-1.31
HMGQPRPLTAEDFDFLSDDEIAEMRKALSNGEMLRLRELIAQIGEKRPFLAERLLVLAKQYNYEDLSRLLE	-0.831
HMGSAKAQLYDLMNAHQVTRNQIQDIVAEKGYFPAGTPIENYPDDFVKGVLVGAWDQVHKAILDKEI	-0.437
HMGRSYTIKSGDTLWAIATRYYGNGAQYSKIYNANKGTIESVAKSRGFRSSQNGHWIFPGTSITI	0.056
HMPTANFPAMAEALKKQYGPPTGEEETSWTHRLGGVFDIKIQSWNTPQGEMVLRSRGAAMDAGML	0.283
HMRPTAWDQISDWLDRHGSIANADVVRIAGLDTLKASKLLTTWREQGLLEPLPGRGKRNMAYVRAI	0.12
HMEKIDEDIMDVLKKKAEVSGISLGVLKSIYEKAVKQYKLGHEIGQVKEQYAMQKVNTHLLENK	0.169
